US10632208B2, “Peptide-mediated drug delivery across epithelial barrier” (Purdue Research Foundation, priority 2017, dated 2020)

Assays:
IL-6 = test: ELISA of IL-6 in Caco-2 cell supernatants; assay type: cell-based, human; settings: recombinant LAP 1 μg/mL, 8 h
Procedure: A semi-quantitative membrane-based RayBio Human Inflammation Antibody Array kit (Ray Biotech) was used to analyze a panel of 40 inflammatory mediators in Caco-2 cell supernatant infected either with the WT or lap^− strain (MOI, ˜50) at 37° C. for 1 h. After killing the extracellular bacteria by gentamicin (50 μg/mL), the Caco-2 cells were incubated for an additional 7 h at 37° C. Recombinant LAP (1 μg/mL) from ClearColi was incubated for 8 h with Caco-2 cells. After immunoblotting, the reaction intensity was quantified using NIH ImageJ software. The data were normalized and expressed as the mean fold changes as a ratio of lap^−/WT±SEM. For the ELISA, Caco-2 cell supernatants were centrifuged (2,000 rpm at 4° C. for 10 min) following treatment as above, and the quantification of TNF-α and IL-6 in was performed using human TNF-α and IL-6 ELISA kits (Ray Biotech) as per manufacturer's instruction. The quantification of TNF-α and IL-6 protein levels was performed in the ileal tissue lysates from mice using mouse TNF-α and IL-6 ELISA kits (Ray Biotech) as per manufacturer's instruction.

Caco-2 cell monolayers = test: Transepithelial electrical resistance (TEER) of Caco-2 monolayers on Transwell inserts; assay type: cell-based, human
L. monocytogenes = test: Translocation of L. monocytogenes through polarized Caco-2 monolayers on Transwell filter-inserts; assay type: cell-based, Listeria monocytogenes; settings: LAP 1 or 2 μg/mL, MOI 50
Procedure: Caco-2 cells were grown as monolayers on Transwell inserts with 3.0 μm pores (Corning-Costar) for up to 14-21 days. TEER was measured to monitor the monolayer integrity (Millicells Voltmeter, Millipore). A TEER value of at least 200 Ω/cm^2 (±10) was used as the basal value to monitor the monolayer integrity. Bacterial cells were washed three times in PBS and resuspended in DMEM-FBS (10%) at a MOI of ˜50 and were added to the apical side of the Transwell system, and after 2 h incubation period at 37° C. in 5% CO2, the liquid was collected from the basal well, and then translocated bacteria were enumerated by plating (Burkholder and Bhunia, 2010). For analysis of FD4 flux, non-metabolizable 4 kDa FITC-labeled dextran (FD4; 5 mg/ml, Sigma-Aldrich) was added with bacteria (MOI, ˜50) resuspended in DMEM-FBS (10%) and added to the apical side. After 2 h incubation at 37° C. in 5% CO2, the liquid was collected from the basal well and fluorescence was measured (Em: 485 nm; Ex: 520 nm; Spectramax, Molecular Devices). For pharmacological inhibition treatments, PDTC (100 μM for 30 min pre-treatment; R&D Systems), Bay-11-7085 (10 μM for 30 min pre-treatment; Sigma-Aldrich), ML-9 (20 μM for 30 min pre-treatment; Sigma-Aldrich), PIK (150 μM, 30 min-pre-treatment and kept during 2-h infection) (Zolotarevsky et al., 2002), and Cytochalasin D (1 μg/mL for 1 h; Sigma-Aldrich) were used separately.
For re-association of externally added LAP to the lap^− mutant, bacteria were harvested from 1 ml of overnight grown culture, and the pellet was washed three times in PBS before the addition of 1 or 2 μg/mL of purified LAP. The mixture was incubated for 30 min at 30° C. with continuous shaking and then pelleted, washed five times in the PBS, resuspended in DMEM, and used in the aforementioned translocation assay.

MLCK = test: Immunoblot of MLCK and P-MLC in whole-cell Caco-2 lysates; assay type: cell-based, human; settings: purified LAP 1 μg/mL, 60 min pi
Procedure: To extract the proteins from Caco-2 cells, cells were seeded in 6-well plates for 14-21 days. Following treatment, the cells were washed, scraped from the bottom of 6-well plates, suspended in PBS, and pelleted by centrifugation. Total protein from Caco-2 cells was extracted using the M-PER Extraction Kit (Thermo Fisher Scientific). Detergent-insoluble (membrane) and detergent-soluble (cytosolic) proteins were isolated using a Mem-Per Eukaryotic Protein Extraction Kit (Thermo Fisher Scientific) while the cytosolic and nuclear proteins were extracted using NE-PER Extraction Reagent (Thermo Fisher Scientific). To extract proteins from ileal epithelial cells, the epithelial cell fraction from ileal tissues were isolated as described above and the detergent-insoluble and the detergent-soluble proteins were isolated using a Mem-Per Eukaryotic Protein Extraction Kit.
To extract total protein from intact bacterial cells, sample solvent buffer and sonication (3 cycles of 20 min each) were used. […] The protein concentrations were determined by BCA assay (Thermo Fisher Scientific), and separated on SDS-PAGE gels (10-12.5% polyacrylamide) and electro-transferred to polyvinylidene difluoride (PVDF) membrane (Millipore). […] To compare the reaction intensities, the average band densities were determined using Quantity One software (Bio-Rad). […]

B1: LAP: Listeria adhesion protein, alcohol acetaldehyde dehydrogenase of Listeria monocytogenes, 866 aa, 94 kDa; recombinant, histidine-tagged form SEQ ID NO: 10 (protein)
chain: MAIKENAAQEVLEVQKVIDRLADNGQKALKAFESYNQEQVDNIVHAMALAGLDQHMPLAKLAVEETGRGLYEDKCIKNIFATEYIWNNIKNNKTVGVINEDVQTGVIEIAEPVGVVAGVTPVTNPTSTTLFKAIIAIKTRNPIIFAFHPSAQRCSSAAAKVVYDAAIAAGAPEHCIQWVEKPSLEATKQLMNHDKVALVLATGGAGMVKSAYSTGKPALGVGPGNVPAYIDKTAKIKRSVNDIILSKSFDQGMICASEQAVIVDKEVAKEVKAEMEANKCYFVKGAEFKKLESYVINPEKGTLNPDVVGKSPAWIANQAGFKVPEDTKILVAEIKGVGDKYPLSHEKLSPVLAFIEAANQAEAFDRCEEMLVYGGLGHSAVIHSTDKEVQKAFGIRMKACRIIVNAPSAQGGIGDIYNGFIPSLTLGCGSYGKNSVSQNVSATNLLNVKRIADRRNNMQWFKLPPKIFFEKYSTQYLQKMEGVERVFIVTDPGMGSFKYVDVVIEHLKKRGNDVAYQVFADVEPDPSDVTVYKGAELMKDFKPDTIIALGGGSAMDAAKGMWLFYEHPEASFFGLKQKFLDIRKRTFKYPKLGGKAKFVAIPTTSGTGSEVTPFAVITDKENNIKYPLADYELTPDVAIVDAQYVTTVPAHITADTGMDVLTHAIESYVSVMASDYTRGLSIRAIELVFENLRESVLTGDPDAREKMHNASALAGMAFANAFLGINHSLAHKIGPEFHIPHGRANAILMPHVIRYNALKPKKHALFPRYESFRADEDYARISRIIGFPAATTEEGVKSLVDEIIKLGKDVGIDMSLKGQNVAKKDLDAVVDTLADRAFMDQCTTANPKQPLVSELKEIYLEAYKGV
modifications: Listeria monocytogenes
IL-6
  IL-6 production: significantly higher levels
Caco-2 cell monolayers; apical treatment, 1-1000 ng/mL, 48-h period
  LAP concentration giving maximum reduction in TEER: 500 to 1000 ng/mL
Caco-2 cell monolayers; purified recombinant LAP added to both the basolateral and apical compartments
  reduction in TEER: 25±2%
Caco-2 cell monolayers; purified recombinant LAP added to the apical compartment
  reduction in TEER: 12±1%
Caco-2 cell monolayers; purified recombinant LAP added to the basolateral compartment
  reduction in TEER: 27±1%
L. monocytogenes
  translocation of the lap- strain after pre-incubation with exogenous purified LAP: rescued the translocation defect
MLCK
  increase of MLCK protein expression levels: 249±9%
